Substitutions are numbered along the chain they refer to.

Two molecules from patent publication US20260263521A1, “ANTI-CD200R1 ANTIBODY AND USE THEREOF” (AIMED BIO INC., priority 2023, published 2026) can be followed below.

One experiment addresses T1, human CD200R1 (Homo sapiens, UniProt Q8TD46).
T1 sequence (Q8TD46 25-348): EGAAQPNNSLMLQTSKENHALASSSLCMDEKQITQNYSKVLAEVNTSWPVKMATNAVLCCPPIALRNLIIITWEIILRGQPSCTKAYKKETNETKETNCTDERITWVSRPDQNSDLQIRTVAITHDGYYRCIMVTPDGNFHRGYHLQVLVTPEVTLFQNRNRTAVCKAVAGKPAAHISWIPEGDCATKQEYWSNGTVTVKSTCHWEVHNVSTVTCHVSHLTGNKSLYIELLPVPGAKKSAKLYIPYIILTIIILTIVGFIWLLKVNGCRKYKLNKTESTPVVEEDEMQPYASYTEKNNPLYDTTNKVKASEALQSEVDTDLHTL
The experiment can be described thus: SPR binding kinetics, human CD200R1. The note with it: hCD200R1-his captured on anti-His CM5 chip, 1:1 Langmuir fit. As to the method:
The CD200R1-specific binding ability of the antibodies (P001009 wt, P001009 v1, P001009 v2, P001009 v3, P001009 v4) selected in Example 14 was analyzed using surface plasma resonance (SPR). For the experiment, 30 μg/mL of an anti-histidine antibody was conjugated to a CM5 biacore chip via an amine bond while allowing to flow at 10 μl/min (10,000 RU). Then, 0.25 μg/mL of human or cynomolgus CD200R1 with dual His-tags was captured onto the completed chip for 60 seconds, and the binding ability of each antibody was analyzed. All experiments were performed by association of antibodies for 120 seconds and dissociation of antibodies for 600 seconds. The resulting graphs were fitted using a 1:1 Langmuir binding kinetic model (FIG. 16), and the kinetics of each antibody were calculated.
In general terms: SPR reads the build-up and loss of mass on a sensor chip optically.

Experiment [1] concerns the target T2, CD200R1 on HH (CRL-2105) cells (Homo sapiens, UniProt Q8TD46).
T2 construct: HH (CRL-2105) cells, which endogenously express CD200R1; host or cells: HH (CRL-2105) cells
T2 sequence (Q8TD46 25-348): T1 sequence (Q8TD46 25-348)
The experiment can be described thus: Cell binding assay (flow cytometry), HH cells. In kind it is cell-based. The protocol: The binding ability of the antibodies identified using unique multifaceted antibody discovery technology was identified in HH (CRL-2105) cells, which endogenously express CD200R1, and Jurkat-CD200R1 cells (Source: DiscoverX), which were generated by intranuclear injection of CD200R1 cDNA.
HH and Jurkat-CD200R1 cells were maintained in RPMI 1640 medium supplemented with 10% heat-inactivated FBS and 1% Penicillin/Streptomycin (P/S). The cells were washed by centrifugation at 130 g for 5 minutes. The cells were seeded onto 96-well round-bottom plates (SPL, #34296) at a density of 1×10^5 cells/well in Flow cytometry staining buffer (Invitrogen, #00-4222-26) or FACS buffer. The cells were treated with all 16 substances and the positive control LY3454738 (US 2020/0087395, I-4P, at Eli Lilly) a concentration of 500 nM in the IgG1 form. After incubation for 1 hour at 4° C., the cells were treated with Alexa-647 Goat anti-human IgG (H+L) cross-adsorbed secondary antibody (Invitrogen, #A21445) and incubated at 4° C. for an additional 30 minutes. […]
Cell-binding ability was determined in the same manner as in Example 12. For the six active substances primarily selected in Example 12, the isotype was changed to IgG4 or the LALAPG gene was mutated, and binding activity was determined in the two cell lines mentioned above.
Binding ability was determined in HH, an endogenous T cell line with high CD200R1 expression, and two additional overexpressing cell lines: U937-CD200R overexpressing cells, generated by intranuclear injection of human CD200R1 CDNA into the monocytic cell line U937 (CRL-1593.2) (Source: UMC Utrecht, the Netherlands) and Jurkat-CD200R overexpressing cells, were also cells engineered using a similar method.
All cell lines were maintained in RPMI 1640 medium supplemented with 10% heat-inactivated FBS and 1% penicillin/streptomycin (P/S) and cell binding was determined in the same manner as in Example 12. […]
Specific binding ability was determined using P001009 WT and antibody-optimized mutants, P001009v1, P001009v2, P001009v3, and P001009v4. […]

B1: P001009: phage display anti-CD200R1 clone; VH SEQ ID NO: 79, VL SEQ ID NO: 94 (antibody, V domains shown)
VH: EVQLLESGGGLVQPGGSLRLSCAASGFTFSSYDMSWVRQAPGKGLEWVSWISHGGGSIYYADSVKGRFTISRDNSKNTLYLQMNSLRAEDTAVYYCARDAPAYSAPLFDYWGQGTLVTVSS
VL: QSVLTQPPSASGTPGQRVTISCSGSSSNIGNNAVNWYQQLPGTAPKLLIYYDSNRPSGVPDRFSGSKSGTSASLAISGLRSEDEADYYCAAWDDSLSGYVFGGGTKLTVL
As to B1, the Ka with human CD200R1 was determined as 2.81e+06 M⁻¹ s⁻¹. In experiment [1] (HH cells), the “cell binding ability, IgG4 or LALAPG mutants” value was “highest efficacy”.

B2: P001009v1: P001009 variant, LC S52 and LC S94 substituted with K and R; VH SEQ ID NO: 79 (antibody, V domains shown)
VH: B1 VH
VL: B1 VL with S53K, S95R
For B2, the Ka with human CD200R1 amounted to 4.77e+06 M⁻¹ s⁻¹. Further, the “binding ability to HH cell line” value in experiment [1] (serial dilution from 100 nM) is on record as “exhibited binding ability”.
